Biological target: citrate synthase (CS) from porcine heart (porcine) (UniProt P00889)
UniProt P00889, sequence (P00889 28-464): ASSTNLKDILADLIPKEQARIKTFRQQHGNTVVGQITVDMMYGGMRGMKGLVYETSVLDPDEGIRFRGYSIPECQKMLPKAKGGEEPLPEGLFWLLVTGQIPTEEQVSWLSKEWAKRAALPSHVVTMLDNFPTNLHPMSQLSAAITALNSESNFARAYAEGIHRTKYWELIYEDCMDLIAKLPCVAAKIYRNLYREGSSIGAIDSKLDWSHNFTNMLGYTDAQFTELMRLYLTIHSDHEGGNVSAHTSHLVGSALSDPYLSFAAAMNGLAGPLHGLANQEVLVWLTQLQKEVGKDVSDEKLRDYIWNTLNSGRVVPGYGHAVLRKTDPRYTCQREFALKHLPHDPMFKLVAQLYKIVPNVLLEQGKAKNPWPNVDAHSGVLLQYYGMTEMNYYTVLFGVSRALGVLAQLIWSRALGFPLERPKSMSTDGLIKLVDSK

citrate synthase thermal aggregation assay (OD360, 42 °C, 1 h): percent of CS kept soluble, ZnJ6:CS 0.1:1 to 10:1: 86%
Substance: recombinant ZnJ6 (Cre06.g251716.t1.2) fused to the streptavidin-binding peptide (SBP) tag (natural protein)
